Reference: the supplement of paper PMC10567573

B1: ZBED3 (parent)
chain: QARLRDVSRREGALGWAPAAPPPL
B2: SMG5 (parent)
chain: TRKLSPGKKRCKDIKRLLVNFMYL

Variants of: B1
Test: protein stability index of a GFP-peptide fusion (GPS, HEK-293T) (PSI 1-6); higher = more stable
Conditions: c terminus: a fixed tail appended
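Further: lentivirally expressed fusions sorted by FACS into six bins by GFP to DsRed ratio, PSI derived from sequencing read proportions per bin multiplied by bin number.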

Protein stability index of substitutions, site by site:
P22: I 2.74; E 4.2; V 2.46; R 3.31; M 3.16; A 3.65; S 3.2; Y 2.37; K 3.62; Q 3.29; F 2.89; W 2.62; H 3.45; T 3.11; N 3.26; G 3.34; D 3.81; L 3.46; C 2.29
P23: M 2.86; Y 2.06; F 2.79; K 3.33; W 2.08; D 3.81; C 3.19; L 2.9; N 3.18; Q 3.5; R 3.33; E 3.12; S 3.63; G 3.73; A 3.38; V 2.79; I 2.36
P21: L 2.67; W 2.12; G 3.02; R 3.49; K 3.55; C 2.31; E 3.87; F 2.48; N 2.84; V 3.27; I 2.84; M 3.2; S 3.5; Q 3.22; D 3.96; A 3.1; Y 2.02
A20: W 1.96

Variants of: B2
Test: as above
Conditions: c terminus: a fixed tail appended

Protein stability index of substitutions, site by site:
D13: N 1.5; Y 1.79; R 1.71; V 3.74; M 2.54; C 1.84; L 2.93; I 3.25; Q 3.52; A 2.75; P 2.62; S 2.42; T 3.66; K 2.07
G7: N 2.08; K 3.32; T 2.22; M 3.1; V 2.47; S 2.17; E 1.97; Q 1.86; L 4.07; I 2.87; A 2.87; P 1.96; R 2.47; F 2.24
V19: Q 2.26; E 1.68; L 3.43; H 2.72; S 2.12; Y 4.05; G 2.1; C 2.31; N 2.21; M 2.59; D 2.34; I 1.66; T 1.84; P 2.62
K15: A 3.83; N 3.35; E 3.46; G 1.85; Q 1.64; V 4.58; T 3.37; M 2.66; L 2.08; D 1.3; P 2.23; W 2.09
K8: T 2.64; N 1.74; L 2.75; C 3.19; R 2.2; H 3.49; F 4.35; E 3.52; W 2.79; S 1.98; G 1.05
R2: A 2.29; P 2.76; H 1.38; S 2.78; N 1.94; T 2.24; Q 1.59; I 3.09; V 2.98; E 1.04; F 3.38; C 2.19; M 3; Y 4.16
L4: G 1.36; Q 2.06; C 2.54; P 2.58; K 2.07; R 1.15; Y 2.63; A 1.76; I 3.12; S 1.47; N 1.22; T 1.62; D 1.33; H 2.64
F21: D 2.37; E 1.75; H 1.49; A 1.76; C 1.21; I 3.19; G 1.63
R10: L 3.06; N 3.09; E 2.67; Y 3.14; P 3.4; S 2.03; H 2.2; Q 3; D 2.02; C 2.23; G 3.25; K 2.07
K12: W 3.15; P 2.41; C 3.37; T 2.96; E 4.79; G 2.95; R 2.47; V 2.02; Y 2.96; M 1.74; F 2.73; A 3.77; D 1.41; L 3.13; S 2.06; Q 2.46; N 2.14
R16: Q 1.27; E 2.42; D 1.6; K 2.01; N 2.58; T 2.9; A 2.73; M 4.38; I 3.39; L 1.66; G 1.71; W 3.81; C 2.27; P 2.24; S 1.36
K9: F 3; T 2.64; P 2.4; V 2.04; N 4.29; L 3.19; S 2.86; G 1.4; Y 2.15; D 3.59; E 2.32; M 2.31; C 2.14
T1: S 3.96; E 2.17; W 1.45; R 4.28; G 1.92; V 3.92; H 3.62; Q 2.7; I 1.95; C 2.22; A 1.51; M 2.88
C11: W 3.27; L 2.46; H 1.58; A 3.02; M 1.93; Q 1.39; Y 1.91; T 1.59; V 1.4; P 2.26; I 4.05; F 3.81; G 1.42; S 1.4; K 2; E 2.58; D 1.79
N20: H 3.2; Y 2.56; F 4.01; S 3.78; P 3.07; Q 3.52; D 3.56; I 3.42; V 2.79; K 2.12; W 1.09; E 3.09
L17: P 1.5; S 2.56; V 1; A 1.77; F 3.34; D 2.24; Q 1.5; T 1.9; G 3.06; H 1.3; R 1.84; K 2.64; E 1.55; M 2.12; Y 2.65
S5: P 2.54; F 4.07; Q 2.62; L 1.55; K 4.05; T 1.02; D 2.41; G 2.7
K3: E 2.41; V 3.52; F 2.44; I 2.34; T 1.66; S 1.59; W 1.86; C 2.31; P 2.52; G 3.74; M 2.94; L 1.85; A 2.18; N 2.16
P6: L 2.45; G 2.69; D 2.55; N 1.9; T 2.59; Q 3.24; V 3.45; Y 3.31; S 2.1; H 2.4
I14: G 1.18; V 2.2; R 2.19; D 1.56; K 1.19; E 1.32; W 2.49; A 2.13; S 2.53; F 2.36; C 3.55; N 1.45; Q 1.5; P 3.95; L 2.27; T 2.05; H 2.23; M 2.34
L18: S 1.88; A 1.41; H 1.6; N 1.55; F 2.21; K 1.54; E 2.16; C 1.52; R 1.68; D 1.76; M 3.27; G 2.35; P 2.48; V 2.52; Q 1.95; T 1.65; Y 2.5
